Measured values taken from IntAct's records for PubMed 19937093.

B1: TNF receptor-associated factor 4 (Homo sapiens), Q9BUZ4 (parent)
chain: MPGFDYKFLEKPKRRLLCPLCGKPMREPVQVSTCGHRFCDTCLQEFLSEGVFKCPEDQLPLDYAKIYPDPELEVQVLGLPIRCIHSEEGCRWSGPLRHLQGHLNTCSFNVIPCPNRCPMKLSRRDLPAHLQHDCPKRRLKCEFCGCDFSGEAYESHEGMCPQESVYCENKCGARMMRRLLAQHATSECPKRTQPCTYCTKEFVFDTIQSHQYQCPRLPVACPNQCGVGTVAREDLPGHLKDSCNTALVLCPFKDSGCKHRCPKLAMARHVEESVKPHLAMMCALVSRQRQELQELRRELEELSVGSDGVLIWKIGSYGRRLQEAKAKPNLECFSPAFYTHKYGYKLQVSAFLNGNGSGEGTHLSLYIRVLPGAFDNLLEWPFARRVTFSLLDQSDPGLAKPQHVTETFHPDPNWKNFQKPGTWRGSLDESSLGFGYPKFISHQDIRKRNYVRDDAVFIRAAVELPRKILS

Variants of: B1
Details: with SMURF1, Q9HCE7-2
SMURF1, Q9HCE7-2, sequence (Q9HCE7 other isoform, or with tags, fused parts or gaps): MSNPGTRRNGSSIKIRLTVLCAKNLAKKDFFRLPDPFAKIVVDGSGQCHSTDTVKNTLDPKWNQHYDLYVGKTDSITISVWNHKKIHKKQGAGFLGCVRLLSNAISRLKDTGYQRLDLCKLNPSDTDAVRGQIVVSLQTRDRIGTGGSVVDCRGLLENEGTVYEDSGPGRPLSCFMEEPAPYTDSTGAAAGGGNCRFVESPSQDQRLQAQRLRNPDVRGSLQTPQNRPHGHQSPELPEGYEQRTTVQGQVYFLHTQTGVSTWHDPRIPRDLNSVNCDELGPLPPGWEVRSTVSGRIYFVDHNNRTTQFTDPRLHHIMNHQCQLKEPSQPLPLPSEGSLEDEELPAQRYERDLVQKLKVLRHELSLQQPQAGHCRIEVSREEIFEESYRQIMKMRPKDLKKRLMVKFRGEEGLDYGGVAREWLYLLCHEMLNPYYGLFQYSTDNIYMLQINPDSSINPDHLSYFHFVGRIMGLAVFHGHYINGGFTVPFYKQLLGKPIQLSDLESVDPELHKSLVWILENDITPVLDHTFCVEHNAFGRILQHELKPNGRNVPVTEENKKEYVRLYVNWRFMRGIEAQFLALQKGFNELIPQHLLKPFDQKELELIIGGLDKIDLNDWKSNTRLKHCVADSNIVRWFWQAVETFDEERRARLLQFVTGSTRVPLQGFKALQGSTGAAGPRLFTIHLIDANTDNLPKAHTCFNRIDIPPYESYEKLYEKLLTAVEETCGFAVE

| effect of a mutation on the interaction | Variant |
| --- | --- |
| disrupting interaction | P60A;L61A;D62A;Y63A;P194A;C195A;T196A;Y197A;P335A;F337A;Y338A |
